According to patent US20210388087A1 (Chugai, published 2021):

T1: Human CD3eg linker (human)
T1 construct: Single chain: epsilon and gamma subunits of human CD3 joined by a 29-mer linker, Flag-tag at the C-terminus; also called recombinant human CD3
T1 chain: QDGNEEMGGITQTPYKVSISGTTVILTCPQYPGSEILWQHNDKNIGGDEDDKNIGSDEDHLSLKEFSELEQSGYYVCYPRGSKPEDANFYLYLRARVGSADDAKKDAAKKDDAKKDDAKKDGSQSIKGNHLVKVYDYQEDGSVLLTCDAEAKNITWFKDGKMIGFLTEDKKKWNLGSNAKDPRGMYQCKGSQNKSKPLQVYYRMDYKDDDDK


Key:
Human CD137 ECD = biological target: T2, Human CD137 ECD (human); test: Biacore SPR, vs parent H183/L072
T2 construct: entry includes C-terminal His-tag and biotin acceptor peptide; also called human CD137 extracellular domain; 4-1BB
T2 sequence (chain, as listed by the source limits assumed): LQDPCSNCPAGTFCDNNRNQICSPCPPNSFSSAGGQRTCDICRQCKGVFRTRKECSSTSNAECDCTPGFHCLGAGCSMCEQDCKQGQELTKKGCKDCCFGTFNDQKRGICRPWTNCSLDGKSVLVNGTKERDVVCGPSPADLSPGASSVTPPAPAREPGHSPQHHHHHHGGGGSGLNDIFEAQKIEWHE

Human CD3eg linker = biological target: T1, Human CD3eg linker; test: Biacore SPR, vs template H183/L072

Binder | fold change of affinity (Human CD137 ECD) [fold] | fold change of affinity (Human CD3eg linker) [fold]
H183/L072 VL S26A (antibody, name in Kabat numbering, V domains shown, Dual-Ig) VH: QVQLVESGGGLVQPGRSLRLSCAASGFTFSNAWMHWVRQAPGKGLEWVAQIKDKGNAYAAYYAPSVKGRFTISRDDSKNSIYLQMNSLKTEDTAVYYCHYVHYASASTVLPAFGVDAWGQGTTVTVSS VL: DIVMTQSPLSLPVTPGEPASISCQAAQELVHMNRNTYLHWYQQKPGQAPRLLIYKVSNRFPGVPDRFSGSGSGTDFTLKISRVEAEDVGVYYCAQGTSVPFTFGQGTKLEIK | 0.8 | –
H183/L072 VL A25I (antibody, name in Kabat numbering, V domains shown, Dual-Ig) VH: QVQLVESGGGLVQPGRSLRLSCAASGFTFSNAWMHWVRQAPGKGLEWVAQIKDKGNAYAAYYAPSVKGRFTISRDDSKNSIYLQMNSLKTEDTAVYYCHYVHYASASTVLPAFGVDAWGQGTTVTVSS VL: DIVMTQSPLSLPVTPGEPASISCQISQELVHMNRNTYLHWYQQKPGQAPRLLIYKVSNRFPGVPDRFSGSGSGTDFTLKISRVEAEDVGVYYCAQGTSVPFTFGQGTKLEIK | 0.2 | –
H183/L072 VH Y97P (antibody, name in Kabat numbering, V domains shown) VH: QVQLVESGGGLVQPGRSLRLSCAASGFTFSNAWMHWVRQAPGKGLEWVAQIKDKGNAYAAYYAPSVKGRFTISRDDSKNSIYLQMNSLKTEDTAVYYCHYVHPASASTVLPAFGVDAWGQGTTVTVSS VL: DIVMTQSPLSLPVTPGEPASISCQASQELVHMNRNTYLHWYQQKPGQAPRLLIYKVSNRFPGVPDRFSGSGSGTDFTLKISRVEAEDVGVYYCAQGTSVPFTFGQGTKLEIK | – | 0
H183/L072 VH Y94P (antibody, name in Kabat numbering, V domains shown) VH: QVQLVESGGGLVQPGRSLRLSCAASGFTFSNAWMHWVRQAPGKGLEWVAQIKDKGNAYAAYYAPSVKGRFTISRDDSKNSIYLQMNSLKTEDTAVYYCHPVHYASASTVLPAFGVDAWGQGTTVTVSS VL: DIVMTQSPLSLPVTPGEPASISCQASQELVHMNRNTYLHWYQQKPGQAPRLLIYKVSNRFPGVPDRFSGSGSGTDFTLKISRVEAEDVGVYYCAQGTSVPFTFGQGTKLEIK | – | 0
H183/L072 VH Y97A (antibody, name in Kabat numbering, V domains shown) VH: QVQLVESGGGLVQPGRSLRLSCAASGFTFSNAWMHWVRQAPGKGLEWVAQIKDKGNAYAAYYAPSVKGRFTISRDDSKNSIYLQMNSLKTEDTAVYYCHYVHAASASTVLPAFGVDAWGQGTTVTVSS VL: DIVMTQSPLSLPVTPGEPASISCQASQELVHMNRNTYLHWYQQKPGQAPRLLIYKVSNRFPGVPDRFSGSGSGTDFTLKISRVEAEDVGVYYCAQGTSVPFTFGQGTKLEIK | – | 0
H183/L072 VL A25G (antibody, name in Kabat numbering, V domains shown, Dual-Ig) VH: QVQLVESGGGLVQPGRSLRLSCAASGFTFSNAWMHWVRQAPGKGLEWVAQIKDKGNAYAAYYAPSVKGRFTISRDDSKNSIYLQMNSLKTEDTAVYYCHYVHYASASTVLPAFGVDAWGQGTTVTVSS VL: DIVMTQSPLSLPVTPGEPASISCQGSQELVHMNRNTYLHWYQQKPGQAPRLLIYKVSNRFPGVPDRFSGSGSGTDFTLKISRVEAEDVGVYYCAQGTSVPFTFGQGTKLEIK | 0.7 | –
H183/L072 VH Y94M (antibody, name in Kabat numbering, V domains shown) VH: QVQLVESGGGLVQPGRSLRLSCAASGFTFSNAWMHWVRQAPGKGLEWVAQIKDKGNAYAAYYAPSVKGRFTISRDDSKNSIYLQMNSLKTEDTAVYYCHMVHYASASTVLPAFGVDAWGQGTTVTVSS VL: DIVMTQSPLSLPVTPGEPASISCQASQELVHMNRNTYLHWYQQKPGQAPRLLIYKVSNRFPGVPDRFSGSGSGTDFTLKISRVEAEDVGVYYCAQGTSVPFTFGQGTKLEIK | – | 0
H183/L072 VH Y94A (antibody, name in Kabat numbering, V domains shown) VH: QVQLVESGGGLVQPGRSLRLSCAASGFTFSNAWMHWVRQAPGKGLEWVAQIKDKGNAYAAYYAPSVKGRFTISRDDSKNSIYLQMNSLKTEDTAVYYCHAVHYASASTVLPAFGVDAWGQGTTVTVSS VL: DIVMTQSPLSLPVTPGEPASISCQASQELVHMNRNTYLHWYQQKPGQAPRLLIYKVSNRFPGVPDRFSGSGSGTDFTLKISRVEAEDVGVYYCAQGTSVPFTFGQGTKLEIK | – | 0.4
H183/L072 VH Y97M (antibody, name in Kabat numbering, V domains shown) VH: QVQLVESGGGLVQPGRSLRLSCAASGFTFSNAWMHWVRQAPGKGLEWVAQIKDKGNAYAAYYAPSVKGRFTISRDDSKNSIYLQMNSLKTEDTAVYYCHYVHMASASTVLPAFGVDAWGQGTTVTVSS VL: DIVMTQSPLSLPVTPGEPASISCQASQELVHMNRNTYLHWYQQKPGQAPRLLIYKVSNRFPGVPDRFSGSGSGTDFTLKISRVEAEDVGVYYCAQGTSVPFTFGQGTKLEIK | – | 0
H183/L072 VH Y97L (antibody, name in Kabat numbering, V domains shown) VH: QVQLVESGGGLVQPGRSLRLSCAASGFTFSNAWMHWVRQAPGKGLEWVAQIKDKGNAYAAYYAPSVKGRFTISRDDSKNSIYLQMNSLKTEDTAVYYCHYVHLASASTVLPAFGVDAWGQGTTVTVSS VL: DIVMTQSPLSLPVTPGEPASISCQASQELVHMNRNTYLHWYQQKPGQAPRLLIYKVSNRFPGVPDRFSGSGSGTDFTLKISRVEAEDVGVYYCAQGTSVPFTFGQGTKLEIK | – | 0
H183/L072 VH Y59W (antibody, name in Kabat numbering, V domains shown) VH: QVQLVESGGGLVQPGRSLRLSCAASGFTFSNAWMHWVRQAPGKGLEWVAQIKDKGNAYAAYWAPSVKGRFTISRDDSKNSIYLQMNSLKTEDTAVYYCHYVHYASASTVLPAFGVDAWGQGTTVTVSS VL: DIVMTQSPLSLPVTPGEPASISCQASQELVHMNRNTYLHWYQQKPGQAPRLLIYKVSNRFPGVPDRFSGSGSGTDFTLKISRVEAEDVGVYYCAQGTSVPFTFGQGTKLEIK | – | 0.6

Second part, the binder after the results:

fold change of affinity (Human CD137 ECD) [fold] | fold change of affinity (Human CD3eg linker) [fold] | Binder
– | 0 | H183/L072 VH Y97I (antibody, name in Kabat numbering, V domains shown) VH: QVQLVESGGGLVQPGRSLRLSCAASGFTFSNAWMHWVRQAPGKGLEWVAQIKDKGNAYAAYYAPSVKGRFTISRDDSKNSIYLQMNSLKTEDTAVYYCHYVHIASASTVLPAFGVDAWGQGTTVTVSS VL: DIVMTQSPLSLPVTPGEPASISCQASQELVHMNRNTYLHWYQQKPGQAPRLLIYKVSNRFPGVPDRFSGSGSGTDFTLKISRVEAEDVGVYYCAQGTSVPFTFGQGTKLEIK
– | 1.1 | H183/L072 VH Y59Q (antibody, name in Kabat numbering, V domains shown) VH: QVQLVESGGGLVQPGRSLRLSCAASGFTFSNAWMHWVRQAPGKGLEWVAQIKDKGNAYAAYQAPSVKGRFTISRDDSKNSIYLQMNSLKTEDTAVYYCHYVHYASASTVLPAFGVDAWGQGTTVTVSS VL: DIVMTQSPLSLPVTPGEPASISCQASQELVHMNRNTYLHWYQQKPGQAPRLLIYKVSNRFPGVPDRFSGSGSGTDFTLKISRVEAEDVGVYYCAQGTSVPFTFGQGTKLEIK
– | 1.1 | H183/L072 VH Y59S (antibody, name in Kabat numbering, V domains shown) VH: QVQLVESGGGLVQPGRSLRLSCAASGFTFSNAWMHWVRQAPGKGLEWVAQIKDKGNAYAAYSAPSVKGRFTISRDDSKNSIYLQMNSLKTEDTAVYYCHYVHYASASTVLPAFGVDAWGQGTTVTVSS VL: DIVMTQSPLSLPVTPGEPASISCQASQELVHMNRNTYLHWYQQKPGQAPRLLIYKVSNRFPGVPDRFSGSGSGTDFTLKISRVEAEDVGVYYCAQGTSVPFTFGQGTKLEIK
– | 0.7 | H183/L072 VH Y59P (antibody, name in Kabat numbering, V domains shown) VH: QVQLVESGGGLVQPGRSLRLSCAASGFTFSNAWMHWVRQAPGKGLEWVAQIKDKGNAYAAYPAPSVKGRFTISRDDSKNSIYLQMNSLKTEDTAVYYCHYVHYASASTVLPAFGVDAWGQGTTVTVSS VL: DIVMTQSPLSLPVTPGEPASISCQASQELVHMNRNTYLHWYQQKPGQAPRLLIYKVSNRFPGVPDRFSGSGSGTDFTLKISRVEAEDVGVYYCAQGTSVPFTFGQGTKLEIK
– | 1.3 | H183/L072 VH Y59R (antibody, name in Kabat numbering, V domains shown) VH: QVQLVESGGGLVQPGRSLRLSCAASGFTFSNAWMHWVRQAPGKGLEWVAQIKDKGNAYAAYRAPSVKGRFTISRDDSKNSIYLQMNSLKTEDTAVYYCHYVHYASASTVLPAFGVDAWGQGTTVTVSS VL: DIVMTQSPLSLPVTPGEPASISCQASQELVHMNRNTYLHWYQQKPGQAPRLLIYKVSNRFPGVPDRFSGSGSGTDFTLKISRVEAEDVGVYYCAQGTSVPFTFGQGTKLEIK
– | 1.2 | H183/L072 VH Y59T (antibody, name in Kabat numbering, V domains shown) VH: QVQLVESGGGLVQPGRSLRLSCAASGFTFSNAWMHWVRQAPGKGLEWVAQIKDKGNAYAAYTAPSVKGRFTISRDDSKNSIYLQMNSLKTEDTAVYYCHYVHYASASTVLPAFGVDAWGQGTTVTVSS VL: DIVMTQSPLSLPVTPGEPASISCQASQELVHMNRNTYLHWYQQKPGQAPRLLIYKVSNRFPGVPDRFSGSGSGTDFTLKISRVEAEDVGVYYCAQGTSVPFTFGQGTKLEIK
– | 0.8 | H183/L072 VH Y94L (antibody, name in Kabat numbering, V domains shown) VH: QVQLVESGGGLVQPGRSLRLSCAASGFTFSNAWMHWVRQAPGKGLEWVAQIKDKGNAYAAYYAPSVKGRFTISRDDSKNSIYLQMNSLKTEDTAVYYCHLVHYASASTVLPAFGVDAWGQGTTVTVSS VL: DIVMTQSPLSLPVTPGEPASISCQASQELVHMNRNTYLHWYQQKPGQAPRLLIYKVSNRFPGVPDRFSGSGSGTDFTLKISRVEAEDVGVYYCAQGTSVPFTFGQGTKLEIK
– | 1.2 | H183/L072 VH Y59V (antibody, name in Kabat numbering, V domains shown) VH: QVQLVESGGGLVQPGRSLRLSCAASGFTFSNAWMHWVRQAPGKGLEWVAQIKDKGNAYAAYVAPSVKGRFTISRDDSKNSIYLQMNSLKTEDTAVYYCHYVHYASASTVLPAFGVDAWGQGTTVTVSS VL: DIVMTQSPLSLPVTPGEPASISCQASQELVHMNRNTYLHWYQQKPGQAPRLLIYKVSNRFPGVPDRFSGSGSGTDFTLKISRVEAEDVGVYYCAQGTSVPFTFGQGTKLEIK
– | 0 | H183/L072 VH Y94I (antibody, name in Kabat numbering, V domains shown) VH: QVQLVESGGGLVQPGRSLRLSCAASGFTFSNAWMHWVRQAPGKGLEWVAQIKDKGNAYAAYYAPSVKGRFTISRDDSKNSIYLQMNSLKTEDTAVYYCHIVHYASASTVLPAFGVDAWGQGTTVTVSS VL: DIVMTQSPLSLPVTPGEPASISCQASQELVHMNRNTYLHWYQQKPGQAPRLLIYKVSNRFPGVPDRFSGSGSGTDFTLKISRVEAEDVGVYYCAQGTSVPFTFGQGTKLEIK
